Where no end group is shown, it is not given here. [ ]: non-standard residue; d: D form. pT = C[C@@H](OP(=O)(O)O)[C@H](N)C(=O)O; pS = N[C@@H](COP(=O)(O)O)C(=O)O
Tests used:
Conditions in all cases: both partners purified
[1] = biological target: T1, 14-3-3θ (human, UniProt P27348 1-245); assay: SEC-MALS; 14-3-3θ (4 mg/mL) pre-incubated 2 h at 20 °C with Site 2 (two peptides per dimer) or Sites 2,4 (one peptide per dimer); TSKgel SuperSW2000
T1 construct: 14-3-3θ, human, UniProt P27348; also called 14-3-3 theta; 14-3-3τ
T1 sequence: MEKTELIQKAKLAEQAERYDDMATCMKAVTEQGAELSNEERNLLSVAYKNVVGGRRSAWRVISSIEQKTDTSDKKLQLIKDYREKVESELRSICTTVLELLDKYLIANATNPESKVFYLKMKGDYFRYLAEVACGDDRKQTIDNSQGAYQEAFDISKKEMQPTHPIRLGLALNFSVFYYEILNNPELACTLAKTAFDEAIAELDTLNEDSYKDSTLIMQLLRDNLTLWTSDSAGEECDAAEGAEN

[2] = biological target: T1, 14-3-3θ; assay: ITC; peptide in the syringe (100 μM singly, 50 μM doubly phosphorylated) titrated into 10 μM 14-3-3θ in the cell; 20 °C; 20 mM HEPES pH 7.5, 150 mM NaCl, 1 mM MgCl2, 0.1 mM TCEP; single-site model
[3] = biological target: T2, 2xFLAG-Eps8 (human, UniProt Q12929 1-822); assay: other fluorescence titration; intramolecular FRET sensor (fluorescein/rhodamine on C230 and C519 of IRSp53); Cdc42, Eps8 and/or 14-3-3θ titrated into the sensor, also back to back; 20 °C; 25 mM Tris-HCl pH 7.5, 150 mM NaCl, 1 mM MgCl2, 5% glycerol, 0.1 mM TCEP; observed Kd (Kobs) from the fits
T2 construct: Eps8, human, UniProt Q12929, full length; also called FLAG-tagged Eps8
T2 sequence (Q12929 whole entry): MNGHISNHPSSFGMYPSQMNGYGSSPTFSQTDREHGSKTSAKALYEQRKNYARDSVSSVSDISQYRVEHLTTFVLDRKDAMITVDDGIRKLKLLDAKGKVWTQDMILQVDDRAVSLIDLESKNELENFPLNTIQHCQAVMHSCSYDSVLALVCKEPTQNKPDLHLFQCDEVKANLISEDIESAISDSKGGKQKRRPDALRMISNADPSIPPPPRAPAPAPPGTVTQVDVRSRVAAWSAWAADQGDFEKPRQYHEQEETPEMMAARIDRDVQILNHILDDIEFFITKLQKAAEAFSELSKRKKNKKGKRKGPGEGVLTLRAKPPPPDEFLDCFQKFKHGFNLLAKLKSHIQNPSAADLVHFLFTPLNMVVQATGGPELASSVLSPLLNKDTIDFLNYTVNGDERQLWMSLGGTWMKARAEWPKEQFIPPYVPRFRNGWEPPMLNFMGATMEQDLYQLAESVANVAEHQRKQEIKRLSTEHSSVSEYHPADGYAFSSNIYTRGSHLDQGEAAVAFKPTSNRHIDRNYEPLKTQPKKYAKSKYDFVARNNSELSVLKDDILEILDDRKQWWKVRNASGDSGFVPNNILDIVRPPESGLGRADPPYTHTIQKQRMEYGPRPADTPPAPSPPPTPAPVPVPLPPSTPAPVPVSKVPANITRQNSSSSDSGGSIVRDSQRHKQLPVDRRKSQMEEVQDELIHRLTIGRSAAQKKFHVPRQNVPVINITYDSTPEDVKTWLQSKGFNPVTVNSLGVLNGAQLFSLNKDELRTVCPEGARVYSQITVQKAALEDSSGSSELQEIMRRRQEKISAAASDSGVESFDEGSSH

[4] = biological target: T3, IRSp53-FLAG (wild type), natively phosphorylated (human (from the printed UniProt entry), UniProt Q9UQB8-4 1-521, phosphorylated in HEK293T cells at S325, T340, T360, S366 and a residue within 452SSST455, most likely S454 (mass spectrometry of the purified 14-3-3-binding-competent fraction)); assay: pull-down; 14-3-3θ-affinity column: MBP-14-3-3θ bound to amylose resin; FLAG-eluted IRSp53-FLAG loaded; eluted with 200 μM Sites 2,3 peptide
T3 construct: also called pIRSp53; WT IRSp53-FLAG; source: HEK293T, transfected, in lysate; not shown: FLAG, C-terminal, kept
T3 sequence (looked up): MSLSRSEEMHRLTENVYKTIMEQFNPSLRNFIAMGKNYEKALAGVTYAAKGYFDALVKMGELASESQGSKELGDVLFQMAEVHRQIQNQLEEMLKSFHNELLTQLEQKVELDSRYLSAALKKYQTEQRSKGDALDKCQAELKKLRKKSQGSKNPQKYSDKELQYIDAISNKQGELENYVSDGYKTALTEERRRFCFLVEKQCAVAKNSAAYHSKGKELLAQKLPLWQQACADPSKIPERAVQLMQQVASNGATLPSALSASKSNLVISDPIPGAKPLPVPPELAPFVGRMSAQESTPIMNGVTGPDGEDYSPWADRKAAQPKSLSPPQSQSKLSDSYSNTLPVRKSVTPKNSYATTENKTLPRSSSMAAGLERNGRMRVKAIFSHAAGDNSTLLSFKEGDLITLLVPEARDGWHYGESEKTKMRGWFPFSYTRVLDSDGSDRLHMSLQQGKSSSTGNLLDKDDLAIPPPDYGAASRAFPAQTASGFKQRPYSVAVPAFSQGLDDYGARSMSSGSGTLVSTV

Row | Binder | stoichiometry N [2] | Kd [2] [nM] | further results
1 | Ac-LSDSYSN[pT]LPVRKS-NH2 (SMILES CC(=O)N[C@@H](CC(C)C)C(=O)N[C@@H](CO)C(=O)N[C@@H](CC(=O)O)C(=O)N[C@@H](CO)C(=O)N[C@@H](Cc1ccc(O)cc1)C(=O)N[C@@H](CO)C(=O)N[C@@H](CC(N)=O)C(=O)N[C@H](C(=O)N[C@@H](CC(C)C)C(=O)N1CCC[C@H]1C(=O)N[C@H](C(=O)N[C@@H](CCCNC(=N)N)C(=O)N[C@@H](CCCCN)C(=O)N[C@@H](CO)C(N)=O)C(C)C)[C@@H](C)OP(=O)(O)O) [Site 2 peptide (pT340)] | ~1 peptide per 14-3-3θ subunit (two peptides per 14-3-3θ dimer) | – | stoichiometry N [1]: 1 peptide per 14-3-3θ subunit
2 | Ac-DSYSN[pT]LPVRKSVTPKNSYATTENK[pT]LPRSSS-NH2 (SMILES CC(=O)N[C@@H](CC(=O)O)C(=O)N[C@@H](CO)C(=O)N[C@@H](Cc1ccc(O)cc1)C(=O)N[C@@H](CO)C(=O)N[C@@H](CC(N)=O)C(=O)N[C@H](C(=O)N[C@@H](CC(C)C)C(=O)N1CCC[C@H]1C(=O)N[C@H](C(=O)N[C@@H](CCCNC(=N)N)C(=O)N[C@@H](CCCCN)C(=O)N[C@@H](CO)C(=O)N[C@H](C(=O)N[C@H](C(=O)N1CCC[C@H]1C(=O)N[C@@H](CCCCN)C(=O)N[C@@H](CC(N)=O)C(=O)N[C@@H](CO)C(=O)N[C@@H](Cc1ccc(O)cc1)C(=O)N[C@@H](C)C(=O)N[C@H](C(=O)N[C@H](C(=O)N[C@@H](CCC(=O)O)C(=O)N[C@@H](CC(N)=O)C(=O)N[C@@H](CCCCN)C(=O)N[C@H](C(=O)N[C@@H](CC(C)C)C(=O)N1CCC[C@H]1C(=O)N[C@@H](CCCNC(=N)N)C(=O)N[C@@H](CO)C(=O)N[C@@H](CO)C(=O)N[C@@H](CO)C(N)=O)[C@@H](C)OP(=O)(O)O)[C@@H](C)O)[C@@H](C)O)[C@@H](C)O)C(C)C)C(C)C)[C@@H](C)OP(=O)(O)O, IRSp53 stretch of 29-40 residues that holds T340 and T360; also called doubly-phosphorylated IRSp53 peptide Sites 2,3; source: synthetic peptide (Dr. Paul Leavis, Tufts University)) [Sites 2,3 peptide (pT340/pT360)] | ~0.5 peptide per 14-3-3θ subunit (one peptide per 14-3-3θ dimer) | 45 | –
3 | Ac-DSYSN[pT]LPVRKSVTPKNSYATTENKTLPRSS[pS]MAAGLE-NH2 (SMILES CSCC[C@H](NC(=O)[C@H](COP(=O)(O)O)NC(=O)[C@H](CO)NC(=O)[C@H](CO)NC(=O)[C@H](CCCNC(=N)N)NC(=O)[C@@H]1CCCN1C(=O)[C@H](CC(C)C)NC(=O)[C@@H](NC(=O)[C@H](CCCCN)NC(=O)[C@H](CC(N)=O)NC(=O)[C@H](CCC(=O)O)NC(=O)[C@@H](NC(=O)[C@@H](NC(=O)[C@H](C)NC(=O)[C@H](Cc1ccc(O)cc1)NC(=O)[C@H](CO)NC(=O)[C@H](CC(N)=O)NC(=O)[C@H](CCCCN)NC(=O)[C@@H]1CCCN1C(=O)[C@@H](NC(=O)[C@@H](NC(=O)[C@H](CO)NC(=O)[C@H](CCCCN)NC(=O)[C@H](CCCNC(=N)N)NC(=O)[C@@H](NC(=O)[C@@H]1CCCN1C(=O)[C@H](CC(C)C)NC(=O)[C@@H](NC(=O)[C@H](CC(N)=O)NC(=O)[C@H](CO)NC(=O)[C@H](Cc1ccc(O)cc1)NC(=O)[C@H](CO)NC(=O)[C@H](CC(=O)O)NC(C)=O)[C@@H](C)OP(=O)(O)O)C(C)C)C(C)C)[C@@H](C)O)[C@@H](C)O)[C@@H](C)O)[C@@H](C)O)C(=O)N[C@@H](C)C(=O)N[C@@H](C)C(=O)NCC(=O)N[C@@H](CC(C)C)C(=O)N[C@@H](CCC(=O)O)C(N)=O, IRSp53 stretch of 29-40 residues that holds T340 and S366; source: synthetic peptide (Dr. Paul Leavis, Tufts University)) [Sites 2,4 peptide (pT340/pS366)] | ~0.5 peptide per 14-3-3θ subunit (one peptide per 14-3-3θ dimer) | 67 | stoichiometry N [1]: 0.5 peptide per 14-3-3θ subunit
4 | Ac-TLPRSS[pS]MAAGLEK-NH2 (SMILES CSCC[C@H](NC(=O)[C@H](COP(=O)(O)O)NC(=O)[C@H](CO)NC(=O)[C@H](CO)NC(=O)[C@H](CCCNC(=N)N)NC(=O)[C@@H]1CCCN1C(=O)[C@H](CC(C)C)NC(=O)[C@@H](NC(C)=O)[C@@H](C)O)C(=O)N[C@@H](C)C(=O)N[C@@H](C)C(=O)NCC(=O)N[C@@H](CC(C)C)C(=O)N[C@@H](CCC(=O)O)C(=O)N[C@@H](CCCCN)C(N)=O) [Site 4 peptide (pS366)] | ~1 peptide per 14-3-3θ subunit (two peptides per 14-3-3θ dimer) | – | –
5 | Ac-QQGKSSSTGNLLD-NH2 (also: phosphoserine at S454, which serine of the chain is not given here) [Site 5 peptide (pS454)] | ~1 peptide per 14-3-3θ subunit (two peptides per 14-3-3θ dimer) | 12000 | –
6 | AQPKSL[pS]PPQSQSKLSDSYSN[pT]LPVRKS [Sites 1,2 peptide (pS325/pT340)] | ~1 peptide per 14-3-3θ subunit | – | –
7 | Ac-ATTENK[pT]LPRSSS-NH2 (SMILES CC(=O)N[C@@H](C)C(=O)N[C@H](C(=O)N[C@H](C(=O)N[C@@H](CCC(=O)O)C(=O)N[C@@H](CC(N)=O)C(=O)N[C@@H](CCCCN)C(=O)N[C@H](C(=O)N[C@@H](CC(C)C)C(=O)N1CCC[C@H]1C(=O)N[C@@H](CCCNC(=N)N)C(=O)N[C@@H](CO)C(=O)N[C@@H](CO)C(=O)N[C@@H](CO)C(N)=O)[C@@H](C)OP(=O)(O)O)[C@@H](C)O)[C@@H](C)O) [Site 3 peptide (pT360)] | ~1 peptide per 14-3-3θ subunit (two peptides per 14-3-3θ dimer) | – | –
8 | pIRSp53FS (natural protein, human (from the printed UniProt entry), UniProt Q9UQB8-4 1-521, looked up, natively phosphorylated in HEK293T cells; fluorescein maleimide / rhodamine maleimide on C230 and C519, IRSp53 (BAIAP2), isoform-4, UniProt Q9UQB8-4, full length, S519C; Expressed and purified as m4; also called IRSp53 FRET sensor; phosphorylated IRSp53 (mutant S519C)) MSLSRSEEMHRLTENVYKTIMEQFNPSLRNFIAMGKNYEKALAGVTYAAKGYFDALVKMGELASESQGSKELGDVLFQMAEVHRQIQNQLEEMLKSFHNELLTQLEQKVELDSRYLSAALKKYQTEQRSKGDALDKCQAELKKLRKKSQGSKNPQKYSDKELQYIDAISNKQGELENYVSDGYKTALTEERRRFCFLVEKQCAVAKNSAAYHSKGKELLAQKLPLWQQACADPSKIPERAVQLMQQVASNGATLPSALSASKSNLVISDPIPGAKPLPVPPELAPFVGRMSAQESTPIMNGVTGPDGEDYSPWADRKAAQPKSLSPPQSQSKLSDSYSNTLPVRKSVTPKNSYATTENKTLPRSSSMAAGLERNGRMRVKAIFSHAAGDNSTLLSFKEGDLITLLVPEARDGWHYGESEKTKMRGWFPFSYTRVLDSDGSDRLHMSLQQGKSSSTGNLLDKDDLAIPPPDYGAASRAFPAQTASGFKQRPYSVAVPAFSQGLDDYGARSMSSGSGTLVCTV | – | – | Kd [3]: 42 nM
9 | MBP-14-3-3θ (natural protein, human, UniProt P27348 1-245, looked up, also called MBP-tagged 14-3-3θ; source: E. coli BL21(DE3), purified (amylose resin, SEC)) MEKTELIQKAKLAEQAERYDDMATCMKAVTEQGAELSNEERNLLSVAYKNVVGGRRSAWRVISSIEQKTDTSDKKLQLIKDYREKVESELRSICTTVLELLDKYLIANATNPESKVFYLKMKGDYFRYLAEVACGDDRKQTIDNSQGAYQEAFDISKKEMQPTHPIRLGLALNFSVFYYEILNNPELACTLAKTAFDEAIAELDTLNEDSYKDSTLIMQLLRDNLTLWTSDSAGEECDAAEGAEN | – | – | binding result [4]: binds

— publication PMC6351565, “Mechanism of IRSp53 inhibition by 14-3-3” (Nature Communications, 2019)
